To fix the notation:
B1: Chaperone Ric-8A (Homo sapiens), Q9NPQ8 (parent)
chain: MEPRAVAEAVETGEEDVIMEALRSYNQEHSQSFTFDDAQQEDRKRLAELLVSVLEQGLPPSHRVIWLQSVRILSRDRNCLDPFTSRQSLQALACYADISVSEGSVPESADMDVVLESLKCLCNLVLSSPVAQMLAAEARLVVKLTERVGLYRERSFPHDVQFFDLRLLFLLTALRTDVRQQLFQELKGVRLLTDTLELTLGVTPEGNPPPTLLPSQETERAMEILKVLFNITLDSIKGEVDEEDAALYRHLGTLLRHCVMIATAGDRTEEFHGHAVNLLGNLPLKCLDVLLTLEPHGDSTEFMGVNMDVIRALLIFLEKRLHKTHRLKESVAPVLSVLTECARMHRPARKFLKAQVLPPLRDVRTRPEVGEMLRNKLVRLMTHLDTDVKRVAAEFLFVLCSESVPRFIKYTGYGNAAGLLAARGLMAGGRPEGQYSEDEDTDTDEYKEAKASINPVTGRVEEKPPNPMEGMTEEQKEHEAMKLVTMFDKLSRNRVIQPMGMSPRGHLTSLQDAMCETMEQQLSSDPDSDPD
B2: Ubiquitin domain-containing protein 2 (Homo sapiens), Q8WUN7 (parent)
chain: MGGCVGAQHDSSGSLNENSEGTGVALGRNQPLKKEKPKWKSDYPMTDGQLRSKRDEFWDTAPAFEGRKEIWDALKAAAHAFESNDHELAQAIIDGANITLPHGALTECYDELGNRYQLPVYCLAPPINMIEEKSDIETLDIPEPPPNSGYECQLRLRLSTGKDLKLVVRSTDTVFHMKRRLHAAEGVEPGSQRWFFSGRPLTDKMKFEELKIPKDYVVQVIVSQPVQNPTPVEN
partner: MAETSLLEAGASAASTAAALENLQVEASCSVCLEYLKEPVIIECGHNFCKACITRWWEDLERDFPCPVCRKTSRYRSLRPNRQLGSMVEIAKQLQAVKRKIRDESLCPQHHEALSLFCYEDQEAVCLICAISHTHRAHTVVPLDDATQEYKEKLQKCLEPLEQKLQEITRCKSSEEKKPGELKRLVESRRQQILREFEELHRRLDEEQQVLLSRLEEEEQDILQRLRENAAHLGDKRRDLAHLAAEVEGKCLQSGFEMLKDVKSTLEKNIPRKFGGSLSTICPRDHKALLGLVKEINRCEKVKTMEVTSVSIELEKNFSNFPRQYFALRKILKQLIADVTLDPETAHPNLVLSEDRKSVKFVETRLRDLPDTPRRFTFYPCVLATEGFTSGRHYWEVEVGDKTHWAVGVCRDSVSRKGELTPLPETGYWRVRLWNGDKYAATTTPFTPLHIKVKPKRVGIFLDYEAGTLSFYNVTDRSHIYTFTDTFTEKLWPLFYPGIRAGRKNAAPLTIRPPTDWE
B3: Liprin-alpha-1 (Homo sapiens), Q13136 (parent)
chain: MMCEVMPTISEAEGPPGGGGGHGSGSPSQPDADSHFEQLMVSMLEERDRLLDTLRETQETLALTQGKLHEVGHERDSLQRQLNTALPQEFAALTKELNVCREQLLEREEEIAELKAERNNTRLLLEHLECLVSRHERSLRMTVVKRQAQSPAGVSSEVEVLKALKSLFEHHKALDEKVRERLRVALERCSLLEEELGATHKELMILKEQNNQKKTLTDGVLDINHEQENTPSTSGKRSSDGSLSHEEDLAKVIELQEIISKQSREQSQMKERLASLSSHVTELEEDLDTARKDLIKSEEMNTKLQRDVREAMAQKEDMEERITTLEKRYLAAQREATSVHDLNDKLENEIANKDSMHRQTEDKNRQLQERLELAEQKLQQTLRKAETLPEVEAELAQRVAALSKAEERHGNIEERLRQMEAQLEEKNQELQRARQREKMNEEHNKRLSDTVDKLLSESNERLQLHLKERMAALEDKNSLLREVESAKKQLEETQHDKDQLVLNIEALRAELDHMRLRGASLHHGRPHLGSVPDFRFPMADGHTDSYSTSAVLRRPQKGRLAALRDEPSKVQTLNEQDWERAQQASVLANVAQAFESDADVSDGEDDRDTLLSSVDLLSPSGQADAHTLAMMLQEQLDAINKEIRLIQEEKENTEQRAEEIESRVGSGSLDNLGRFRSMSSIPPYPASSLASSSPPGSGRSTPRRIPHSPAREVDRLGVMTLLPPSREEVRDDKTTIKCETSPPSSPRALRLDRLHKGALHTVSHEDIRDIRNSTGSQDGPVSNPSSSNSSQDSLHKAPKKKGIKSSIGRLFGKKEKGRPGQTGKEALGQAGVSETDNSSQDALGLSKLGGQAEKNRKLQKKHELLEEARRQGLPFAQWDGPTVVVWLELWVGMPAWYVAACRANVKSGAIMSALSDTEIQREIGISNPLHRLKLRLAIQEIMSLTSPSAPPTSRTTLAYGDMNHEWIGNEWLPSLGLPQYRSYFMECLVDARMLDHLTKKDLRGQLKMVDSFHRNSFQCGIMCLRRLNYDRKELERKREESQSEIKDVLVWSNDRVIRWILSIGLKEYANNLIESGVHGALLALDETFDFSALALLLQIPTQNTQARAVLEREFNNLLVMGTDRRFDEDDDKSFRRAPSWRKKFRPKDIRGLAAGSAETLPANFRVTSSMSSPSMQPKKMQMDGNVSGTQRLDSATVRTYSC
partner: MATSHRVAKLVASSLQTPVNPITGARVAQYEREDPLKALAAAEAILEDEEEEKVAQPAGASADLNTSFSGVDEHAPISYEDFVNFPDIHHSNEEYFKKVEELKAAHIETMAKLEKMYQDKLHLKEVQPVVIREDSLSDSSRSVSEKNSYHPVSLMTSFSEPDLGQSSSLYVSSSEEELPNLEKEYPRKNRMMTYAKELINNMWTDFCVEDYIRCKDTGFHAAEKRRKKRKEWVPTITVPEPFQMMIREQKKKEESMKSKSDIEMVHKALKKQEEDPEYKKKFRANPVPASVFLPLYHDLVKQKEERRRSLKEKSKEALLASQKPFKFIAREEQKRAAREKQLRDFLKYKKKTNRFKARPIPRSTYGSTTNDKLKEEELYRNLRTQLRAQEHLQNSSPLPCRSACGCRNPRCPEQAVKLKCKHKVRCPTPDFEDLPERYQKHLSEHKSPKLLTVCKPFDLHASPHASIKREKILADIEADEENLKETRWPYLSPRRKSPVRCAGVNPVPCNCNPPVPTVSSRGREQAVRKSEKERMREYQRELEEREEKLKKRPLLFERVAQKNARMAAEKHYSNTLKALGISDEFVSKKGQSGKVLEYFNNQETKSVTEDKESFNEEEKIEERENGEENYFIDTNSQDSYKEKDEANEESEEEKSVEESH
B4: Syntaxin-3 (Homo sapiens), Q13277 (parent)
chain: MKDRLEQLKAKQLTQDDDTDAVEIAIDNTAFMDEFFSEIEETRLNIDKISEHVEEAKKLYSIILSAPIPEPKTKDDLEQLTTEIKKRANNVRNKLKSMEKHIEEDEVRSSADLRIRKSQHSVLSRKFVEVMTKYNEAQVDFRERSKGRIQRQLEITGKKTTDEELEEMLESGNPAIFTSGIIDSQISKQALSEIEGRHKDIVRLESSIKELHDMFMDIAMLVENQGEMLDNIELNVMHTVDHVEKARDETKKAVKYQSQARKKLIIIIVLVVVLLGILALIIGLSVGLN
B5: Zyxin (Homo sapiens), Q15942 (parent)
chain: MAAPRPSPAISVSVSAPAFYAPQKKFGPVVAPKPKVNPFRPGDSEPPPAPGAQRAQMGRVGEIPPPPPEDFPLPPPPLAGDGDDAEGALGGAFPPPPPPIEESFPPAPLEEEIFPSPPPPPEEEGGPEAPIPPPPQPREKVSSIDLEIDSLSSLLDDMTKNDPFKARVSSGYVPPPVATPFSSKSSTKPAAGGTAPLPPWKSPSSSQPLPQVPAPAQSQTQFHVQPQPQPKPQVQLHVQSQTQPVSLANTQPRGPPASSPAPAPKFSPVTPKFTPVASKFSPGAPGGSGSQPNQKLGHPEALSAGTGSPQPPSFTYAQQREKPRVQEKQHPVPPPAQNQNQVRSPGAPGPLTLKEVEELEQLTQQLMQDMEHPQRQNVAVNELCGRCHQPLARAQPAVRALGQLFHIACFTCHQCAQQLQGQQFYSLEGAPYCEGCYTDTLEKCNTCGEPITDRMLRATGKAYHPHCFTCVVCARPLEGTSFIVDQANRPHCVPDYHKQYAPRCSVCSEPIMPEPGRDETVRVVALDKNFHMKCYKCEDCGKPLSIEADDNGCFPLDGHVLCRKCHTARAQT
partner: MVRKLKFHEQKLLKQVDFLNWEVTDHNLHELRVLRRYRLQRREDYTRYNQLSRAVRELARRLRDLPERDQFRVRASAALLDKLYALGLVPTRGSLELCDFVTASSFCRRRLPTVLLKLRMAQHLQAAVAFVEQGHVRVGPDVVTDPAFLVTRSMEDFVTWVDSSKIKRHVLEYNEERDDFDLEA
B6: Transmembrane protein 218 (Homo sapiens), A2RU14 (parent)
chain: MAGTVLGVGAGVFILALLWVAVLLLCVLLSRASGAARFSVIFLFFGAVIITSVLLLFPRAGEFPAPEVEVKIVDDFFIGRYVLLAFLSAIFLGGLFLVLIHYVLEPIYAKPLHSY
partner: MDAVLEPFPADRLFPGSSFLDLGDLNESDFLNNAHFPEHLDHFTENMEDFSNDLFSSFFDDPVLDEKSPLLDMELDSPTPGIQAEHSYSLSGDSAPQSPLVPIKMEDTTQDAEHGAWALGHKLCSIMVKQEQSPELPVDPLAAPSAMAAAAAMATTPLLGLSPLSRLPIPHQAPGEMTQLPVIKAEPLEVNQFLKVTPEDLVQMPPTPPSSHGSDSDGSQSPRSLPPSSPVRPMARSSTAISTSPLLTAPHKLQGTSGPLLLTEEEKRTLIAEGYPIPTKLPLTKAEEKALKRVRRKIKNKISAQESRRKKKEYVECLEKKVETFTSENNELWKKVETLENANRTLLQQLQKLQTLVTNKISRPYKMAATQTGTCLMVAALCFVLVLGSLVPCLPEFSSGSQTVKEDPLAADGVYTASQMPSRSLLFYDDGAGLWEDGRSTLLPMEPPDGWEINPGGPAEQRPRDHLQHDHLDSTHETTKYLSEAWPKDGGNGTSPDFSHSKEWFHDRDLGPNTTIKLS
B7: Protein Largen (Homo sapiens), Q569H4 (parent)
chain: MSAKSKGNPSSSCPAEGPPAASKTKVKEQIKIIVEDLELVLGDLKDVAKELKEVVDQIDTLTSDLQLEDEMTDSSKTDTLNSSSSGTTASSLEKIKVQANAPLIKPPAHPSAILTVLRKPNPPPPPPRLTPVKCEDPKRVVPTANPVKTNGTLLRNGGLPGGPNKIPNGDICCIPNSNLDKAPVQLLMHRPEKDRCPQAGPRERVRFNEKVQYHGYCPDCDTRYNIKNREVHLHSEPVHPPGKIPHQGPPLPPTPHLPPFPLENGGMGISHSNSFPPIRPATVPPPTAPKPQKTILRKSTTTTV

The variants in the first experiment derive from B1. Particulars: with praf1_human RABAC1, Q9UI14.
Chain of praf1_human RABAC1, Q9UI14 (Q9UI14 whole entry): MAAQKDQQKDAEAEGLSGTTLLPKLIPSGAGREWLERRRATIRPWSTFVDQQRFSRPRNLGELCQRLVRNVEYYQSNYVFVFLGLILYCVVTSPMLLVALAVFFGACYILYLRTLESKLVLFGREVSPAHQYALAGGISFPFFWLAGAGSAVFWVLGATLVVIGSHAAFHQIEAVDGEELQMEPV
K319E: the “effect of a mutation on the interaction” value is reported as “with no effect”.

In the next experiment the parent is B1. The note with it: with ubql1_human UBQLN1, Q9UMX0.
Chain of ubql1_human UBQLN1, Q9UMX0 (Q9UMX0 whole entry): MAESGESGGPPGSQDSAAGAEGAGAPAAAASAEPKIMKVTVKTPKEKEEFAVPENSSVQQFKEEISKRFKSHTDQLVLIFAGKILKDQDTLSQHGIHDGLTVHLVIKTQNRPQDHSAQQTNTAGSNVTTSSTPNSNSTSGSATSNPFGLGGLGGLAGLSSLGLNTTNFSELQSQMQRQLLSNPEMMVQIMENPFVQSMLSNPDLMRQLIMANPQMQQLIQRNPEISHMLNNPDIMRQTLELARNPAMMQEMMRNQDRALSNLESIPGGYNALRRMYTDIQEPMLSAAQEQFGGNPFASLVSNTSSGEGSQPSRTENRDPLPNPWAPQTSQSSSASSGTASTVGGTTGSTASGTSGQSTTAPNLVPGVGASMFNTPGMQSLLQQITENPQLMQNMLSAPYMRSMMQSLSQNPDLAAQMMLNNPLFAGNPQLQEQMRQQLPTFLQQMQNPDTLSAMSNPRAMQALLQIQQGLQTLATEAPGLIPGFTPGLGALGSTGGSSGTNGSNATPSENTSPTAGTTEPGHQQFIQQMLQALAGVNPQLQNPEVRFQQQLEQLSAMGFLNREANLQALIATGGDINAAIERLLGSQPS
Take K319E: the “effect of a mutation on the interaction” value was “with no effect”.

The variants in another experiment derive from B1. The note with it: with sdcb1_human SDCBP.
Consider K319E, for which the “effect of a mutation on the interaction” value was “with no effect”.

The variants in another experiment derive from B1. The note with it: with nutm1_human NUTM1, Q86Y26.
Chain of nutm1_human NUTM1, Q86Y26 (Q86Y26 whole entry): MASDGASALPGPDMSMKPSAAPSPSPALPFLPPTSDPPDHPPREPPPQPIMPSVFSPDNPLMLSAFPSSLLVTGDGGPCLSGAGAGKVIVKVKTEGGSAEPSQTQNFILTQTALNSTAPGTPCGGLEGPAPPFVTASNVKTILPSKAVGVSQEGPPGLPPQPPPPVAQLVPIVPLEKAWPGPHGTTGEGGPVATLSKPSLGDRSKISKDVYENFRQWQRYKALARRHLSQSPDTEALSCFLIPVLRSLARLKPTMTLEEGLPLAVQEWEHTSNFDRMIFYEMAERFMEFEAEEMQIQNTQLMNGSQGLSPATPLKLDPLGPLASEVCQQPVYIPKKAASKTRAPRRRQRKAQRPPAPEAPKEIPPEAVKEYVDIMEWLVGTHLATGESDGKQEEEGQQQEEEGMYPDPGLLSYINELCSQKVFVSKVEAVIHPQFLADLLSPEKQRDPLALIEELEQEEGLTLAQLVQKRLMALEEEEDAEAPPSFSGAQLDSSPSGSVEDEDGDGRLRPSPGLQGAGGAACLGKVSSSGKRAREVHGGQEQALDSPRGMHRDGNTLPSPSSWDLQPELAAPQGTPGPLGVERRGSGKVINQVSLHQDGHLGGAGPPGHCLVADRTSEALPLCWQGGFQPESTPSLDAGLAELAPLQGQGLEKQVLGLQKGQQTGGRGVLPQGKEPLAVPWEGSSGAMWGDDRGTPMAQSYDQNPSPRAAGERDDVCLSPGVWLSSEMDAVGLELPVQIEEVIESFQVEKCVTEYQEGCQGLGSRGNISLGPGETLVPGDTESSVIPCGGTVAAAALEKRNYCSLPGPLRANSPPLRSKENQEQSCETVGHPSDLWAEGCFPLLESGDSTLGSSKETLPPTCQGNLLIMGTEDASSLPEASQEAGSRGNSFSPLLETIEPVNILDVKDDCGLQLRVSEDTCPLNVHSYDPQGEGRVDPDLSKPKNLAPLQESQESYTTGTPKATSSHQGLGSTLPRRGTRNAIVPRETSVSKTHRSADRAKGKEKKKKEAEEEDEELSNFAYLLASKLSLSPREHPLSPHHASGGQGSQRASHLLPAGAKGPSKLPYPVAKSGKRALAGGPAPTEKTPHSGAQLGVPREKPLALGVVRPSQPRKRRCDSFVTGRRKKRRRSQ
Consider K319E, for which the “effect of a mutation on the interaction” value was “with no effect”.

Another experiment covers variants of B2. Particulars: with tri39_human TRIM39, Q9HCM9.
Turning to R180W, the “effect of a mutation on the interaction” value was “with no effect”.

The next experiment covers variants of B3. The note with it: with FAM161A.
With L330F, the “effect of a mutation on the interaction” value is “disrupting interaction strength”.

A further experiment covers variants of B3. The note with it: with FAM161A. This is another data set of the same source.
As for P389L, the “effect of a mutation on the interaction” value was “with no effect”.

The variants in a further experiment derive from B4. Particulars: with stx4_human STX4, Q12846.
Chain of stx4_human STX4, Q12846 (Q12846 whole entry): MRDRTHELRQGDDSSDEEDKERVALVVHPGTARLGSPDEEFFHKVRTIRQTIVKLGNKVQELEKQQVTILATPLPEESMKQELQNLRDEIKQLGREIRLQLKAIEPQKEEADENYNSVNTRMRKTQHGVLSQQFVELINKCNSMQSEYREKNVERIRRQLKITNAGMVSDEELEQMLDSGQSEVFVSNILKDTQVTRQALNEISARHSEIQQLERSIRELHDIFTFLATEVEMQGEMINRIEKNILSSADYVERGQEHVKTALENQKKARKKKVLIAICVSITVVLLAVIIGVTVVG
K199E: the “effect of a mutation on the interaction” value was “with no effect”.

The variants in the next experiment derive from B5. Particulars: with imp3_human IMP3, Q9NV31.
For the variant R167G, the “effect of a mutation on the interaction” value is reported as “with no effect”.

Another experiment covers variants of B6. The note with it: with cr3l1_human CREB3L1, Q96BA8.
Regarding P66S, the “effect of a mutation on the interaction” value is on record as “with no effect”.

Variants of B7 are the subject of another experiment. The note with it: with abi2_human ABI2, Q9NYB9.
Chain of abi2_human ABI2, Q9NYB9 (Q9NYB9 whole entry): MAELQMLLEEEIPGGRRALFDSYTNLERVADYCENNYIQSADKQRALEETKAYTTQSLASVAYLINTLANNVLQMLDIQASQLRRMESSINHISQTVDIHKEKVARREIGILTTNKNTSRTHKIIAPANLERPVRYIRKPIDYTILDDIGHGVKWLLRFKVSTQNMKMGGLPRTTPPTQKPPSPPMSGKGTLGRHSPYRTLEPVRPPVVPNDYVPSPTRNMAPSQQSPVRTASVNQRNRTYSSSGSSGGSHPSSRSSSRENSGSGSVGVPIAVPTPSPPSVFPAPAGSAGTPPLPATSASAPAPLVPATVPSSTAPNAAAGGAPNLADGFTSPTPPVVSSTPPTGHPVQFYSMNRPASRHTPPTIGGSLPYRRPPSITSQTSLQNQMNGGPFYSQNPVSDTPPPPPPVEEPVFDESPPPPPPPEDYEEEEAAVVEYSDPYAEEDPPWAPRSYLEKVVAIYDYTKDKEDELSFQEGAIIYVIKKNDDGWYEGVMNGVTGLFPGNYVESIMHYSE
As for Q98P, the “effect of a mutation on the interaction” value was “with no effect”.

Values taken from IntAct's records for PubMed 29892012.
